From article PMC10577934, “Semi-rational engineering an aldo–keto reductase for stereocomplementary reduction of α-keto amide compounds” (Microbial Cell Factories, 2023) come the findings set out here.

B1: iolS (Bacillus subtilis subsp. subtilis str. 168) (protein)
chain: MKKAKLGKSDLQVFPIGLGTNAVGGHNLYPNLNEETGKELVREAIRNGVTMLDTAYIYGIGRSEELIGEVLREFNREDVVIATKAAHRKQGNDFVFDNSPDFLKKSVDESLKRLNTDYIDLFYIHFPDEHTPKDEAVNALNEMKKAGKIRSIGVSNFSLEQLKEANKDGLVDVLQGEYNLLNREAEKTFFPYTKEHNISFIPYFPLVSGLLAGKYTEDTTFPEGDLRNEQEHFKGERFKENIRKVNKLAPIAEKHNVDIPHIVLAWYLARPEIDILIPGAKRADQLIDNIKTADVTLSQEDISFIDKLFA
notes: pET28a, His-tagged, expressed in E. coli BL21(DE3), Ni-NTA purified
B2: iolS (Bacillus subtilis subsp. subtilis str. 168; N21A) (protein)
chain: MKKAKLGKSDLQVFPIGLGTAAVGGHNLYPNLNEETGKELVREAIRNGVTMLDTAYIYGIGRSEELIGEVLREFNREDVVIATKAAHRKQGNDFVFDNSPDFLKKSVDESLKRLNTDYIDLFYIHFPDEHTPKDEAVNALNEMKKAGKIRSIGVSNFSLEQLKEANKDGLVDVLQGEYNLLNREAEKTFFPYTKEHNISFIPYFPLVSGLLAGKYTEDTTFPEGDLRNEQEHFKGERFKENIRKVNKLAPIAEKHNVDIPHIVLAWYLARPEIDILIPGAKRADQLIDNIKTADVTLSQEDISFIDKLFA
notes: as for B1
B3: iolS (Bacillus subtilis subsp. subtilis str. 168; I57F) (protein)
chain: MKKAKLGKSDLQVFPIGLGTNAVGGHNLYPNLNEETGKELVREAIRNGVTMLDTAYFYGIGRSEELIGEVLREFNREDVVIATKAAHRKQGNDFVFDNSPDFLKKSVDESLKRLNTDYIDLFYIHFPDEHTPKDEAVNALNEMKKAGKIRSIGVSNFSLEQLKEANKDGLVDVLQGEYNLLNREAEKTFFPYTKEHNISFIPYFPLVSGLLAGKYTEDTTFPEGDLRNEQEHFKGERFKENIRKVNKLAPIAEKHNVDIPHIVLAWYLARPEIDILIPGAKRADQLIDNIKTADVTLSQEDISFIDKLFA
notes: as for B1
B4: iolS (Bacillus subtilis subsp. subtilis str. 168; F126L) (protein)
chain: MKKAKLGKSDLQVFPIGLGTNAVGGHNLYPNLNEETGKELVREAIRNGVTMLDTAYIYGIGRSEELIGEVLREFNREDVVIATKAAHRKQGNDFVFDNSPDFLKKSVDESLKRLNTDYIDLFYIHLPDEHTPKDEAVNALNEMKKAGKIRSIGVSNFSLEQLKEANKDGLVDVLQGEYNLLNREAEKTFFPYTKEHNISFIPYFPLVSGLLAGKYTEDTTFPEGDLRNEQEHFKGERFKENIRKVNKLAPIAEKHNVDIPHIVLAWYLARPEIDILIPGAKRADQLIDNIKTADVTLSQEDISFIDKLFA
notes: as for B1
B5: iolS (Bacillus subtilis subsp. subtilis str. 168; F126L/I57F) (protein)
chain: MKKAKLGKSDLQVFPIGLGTNAVGGHNLYPNLNEETGKELVREAIRNGVTMLDTAYFYGIGRSEELIGEVLREFNREDVVIATKAAHRKQGNDFVFDNSPDFLKKSVDESLKRLNTDYIDLFYIHLPDEHTPKDEAVNALNEMKKAGKIRSIGVSNFSLEQLKEANKDGLVDVLQGEYNLLNREAEKTFFPYTKEHNISFIPYFPLVSGLLAGKYTEDTTFPEGDLRNEQEHFKGERFKENIRKVNKLAPIAEKHNVDIPHIVLAWYLARPEIDILIPGAKRADQLIDNIKTADVTLSQEDISFIDKLFA
notes: as for B1
B6: iolS (Bacillus subtilis subsp. subtilis str. 168; F126A/N21A) (protein)
chain: MKKAKLGKSDLQVFPIGLGTAAVGGHNLYPNLNEETGKELVREAIRNGVTMLDTAYIYGIGRSEELIGEVLREFNREDVVIATKAAHRKQGNDFVFDNSPDFLKKSVDESLKRLNTDYIDLFYIHAPDEHTPKDEAVNALNEMKKAGKIRSIGVSNFSLEQLKEANKDGLVDVLQGEYNLLNREAEKTFFPYTKEHNISFIPYFPLVSGLLAGKYTEDTTFPEGDLRNEQEHFKGERFKENIRKVNKLAPIAEKHNVDIPHIVLAWYLARPEIDILIPGAKRADQLIDNIKTADVTLSQEDISFIDKLFA
notes: as for B1

Substrate in the data set: O=C(Nc1ccccc1)C(=O)c1ccccc1
Put plainly: initial velocity by HPLC of product, nonlinear Michaelis-Menten fit. It is filed as biochemical, Bacillus subtilis. The settings on record: NAD(P)H cofactor, potassium phosphate 100 mM pH 7.0, 30 °C. From the text: initial velocity by HPLC of product, nonlinear Michaelis-Menten fit on iolS
By Km is commonly meant the substrate concentration at which the rate is half of its maximum. For orientation: kcat means the number of substrate molecules converted per active site and unit of time at saturation. For orientation: kcat/Km means the turnover number divided by the Michaelis constant. As to B1, the Km was 1810 ± 130 µM, the kcat worked out at 3.53 ± 0.12 s⁻¹ and the kcat/Km was determined as 1950 M⁻¹ s⁻¹.
On the same counts, the results for B2 are 1160 ± 160 µM, 4.1 ± 0.12 s⁻¹ and 3530 M⁻¹ s⁻¹.
Turning to B3, the Km was found to be 1720 ± 130 µM, the kcat was determined as 3.96 ± 0.23 s⁻¹ and the kcat/Km amounted to 2320 M⁻¹ s⁻¹.
With B4, the Km is 1550 ± 220 µM, the kcat was found to be 3.81 ± 0.13 s⁻¹ and the kcat/Km is 2450 M⁻¹ s⁻¹.
For B5, in that order: 1710 ± 110 µM, 4.32 ± 0.14 s⁻¹ and 2510 M⁻¹ s⁻¹.
For B6, in that order: 1650 ± 120 µM, 6.4 ± 0.25 s⁻¹ and 3880 M⁻¹ s⁻¹.
